Like-named read-outs stand apart in the source and are kept apart here.
Assays:
[1] = molecular target: T1, human PVRIG expressed on cells (human, UniProt Q6DKI7 1-326); assay: cell-based or functional assay
T1 sequence (looked up): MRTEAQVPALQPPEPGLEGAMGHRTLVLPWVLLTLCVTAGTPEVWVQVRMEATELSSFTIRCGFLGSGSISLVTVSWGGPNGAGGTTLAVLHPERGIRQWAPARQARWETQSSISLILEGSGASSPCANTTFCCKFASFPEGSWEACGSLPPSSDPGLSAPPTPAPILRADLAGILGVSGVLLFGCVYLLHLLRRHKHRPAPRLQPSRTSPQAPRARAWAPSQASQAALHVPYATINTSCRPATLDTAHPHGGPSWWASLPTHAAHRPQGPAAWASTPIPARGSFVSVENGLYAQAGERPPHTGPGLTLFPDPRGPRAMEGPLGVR

[2] = molecular target: T1, human PVRIG expressed on cells; assay: cell-based or functional assay; remark: listed apart in the source

B1: Tab5 (antibody, V domains shown)
VH: EVQLVESGGGVVKPGGSLRLSCAASGFTFGTSSMNWVRQAPGKGLEWVAVISFDGTEIHYADSVKGRFTISRDNSKSTVFLQMNSLRPDDTALYYCAKGSGNIYFYSGMDVWGQGTTVTVSS
VL: DIQMTQSPSTLSASVGDRVTITCRAGQSISGWLAWFQQKPGKAPNLLIYETSTLESGVPSRFSGSGSGTEYTLTISSLQPDDFATYYCQQYYSYPLTFGQGTKVEIKR
[1]
  PVRIG reporter gene cell activity EC50: 0.74 nM
[2]
  PVRIG reporter gene cell activity EC50: 1.38 nM
